Assay [1] concerns the target T1, human BCMA on cells (endogenous, on multiple myeloma and lymphoma cell lines) (human, UniProt Q02223 1-184).
T1 sequence: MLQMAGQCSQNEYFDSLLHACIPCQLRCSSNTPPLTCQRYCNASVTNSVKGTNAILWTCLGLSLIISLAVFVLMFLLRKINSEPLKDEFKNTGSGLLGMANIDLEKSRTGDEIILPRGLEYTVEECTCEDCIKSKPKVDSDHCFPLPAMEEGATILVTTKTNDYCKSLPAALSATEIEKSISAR
In words: cell-based or functional assay.

Assay [2] has as its target T1, human BCMA on cells (endogenous, on …). In words: flow cytometry on MM.1S cells, Alexa647 conjugate. As to the method:
Cells were then washed and fixed for 25 mins at 4° C. using a 50% solution of BD Cytofix (BD, Cat #554655) diluted in PBS. […] After gating for live cells and single cells, the mean fluorescent intensity (MFI) was determined, and MFI values were plotted in Graphpad Prism using a four-parameter logistic equation over a 10-point response curve to calculate EC₅₀s. The zero condition for each dose-response curve is also included in the analysis as a continuation of the two-fold serial dilution and is represented as the lowest dose. The signal to noise (S/N) is determined by taking the ratio of the mAb25442D-A647 MFI to the Isotype-A647 MFI. (Table 13). The mAb25442D-A647 S/N ranged from 2 to 470 and the EC₅₀ values ranged from 27 to 83 nM. No detectable binding was observed on HEK293 cells.
Background: Flow cytometry measures light scatter and fluorescence of single cells or particles in a stream.

We go through two molecules from US20220306758A1 (Regeneron, published 2022).

B1: REGN5458 (bsAb25441D), anti-BCMA x anti-CD3 bispecific antibody (bispecific antibody, V domains shown)
VH 1: EVQLVESGGGLVQPGGSLRLSCAASGFTFSNFWMTWVRQAPGKGLEWVANMNQDGSEKYYVDSVKGRFTISRDNAKSSLYLQMNSLRAEDTAVYYCARDREYCISTSCYDDFDYWGQGTLVTVSS
VH 2: EVQLVESGGGLVQPGRSLRLSCAASGFTFDDYSMHWVRQAPGKGLEWVSGISWNSGSKGYADSVKGRFTISRDNAKNSLYLQMNSLRAEDTALYYCAKYGSGYGKFYHYGLDVWGQGTTVTVSS
VL: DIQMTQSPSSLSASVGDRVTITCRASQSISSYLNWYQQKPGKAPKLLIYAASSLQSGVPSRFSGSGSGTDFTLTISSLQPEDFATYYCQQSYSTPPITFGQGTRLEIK
notes: Two different heavy chains paired with a common light chain; human Fc (captured by anti-human Fc in SPR); also called bsAb25441D9; mAb25441D
For B1, in assay [1], the “MFI fold change over cells incubated in media only, NCI-H929, 18 h with 67 nM antibody, then stained with the same antibody” value amounted to 2 fold and the “MFI fold change over cells incubated in media only, NCI-H929, 18 h with 667 nM antibody, then stained with the same antibody” value stood at 3 fold.

B2: REGN5459 (bsAb25442D), anti-BCMA x anti-CD3 bispecific antibody (bispecific antibody, V domains shown)
VH 1: EVQLVESGGGLVQPGGSLRLSCAASGFTFSNFWMTWVRQAPGKGLEWVANMNQDGSEKYYVDSVKGRFTISRDNAKSSLYLQMNSLRAEDTAVYYCARDREYCISTSCYDDFDYWGQGTLVTVSS
VH 2: EVQLVESGGGLVQPGRSLRLSCAASGFTFDDYSMHWVRQAPGKGLEWVSGISWNSGSIGYADSVKGRFTISRDNAKNSLYLQMNSLRAEDTALYYCAKYGSGYGKFYYYGMDVWGQGTTVTVSS
VL: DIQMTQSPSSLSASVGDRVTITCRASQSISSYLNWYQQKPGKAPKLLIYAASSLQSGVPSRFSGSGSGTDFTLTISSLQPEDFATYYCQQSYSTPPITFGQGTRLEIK
notes: also called mAb25442D; mAb25442D-A647
Turning to B2, the EC50 in assay [2] is 83 nM.

In general, EC50 refers to the concentration needed to bring the measured effect to its halfway point. Low values mean higher potency in that assay, high ones lower potency in that assay.
